Reference: paper PMC3640471, “The structures of Arabidopsis Deg5 and Deg8 reveal new insights into HtrA proteases” (Acta Crystallographica Section D: Biological Crystallography, 2013)
Residue numbers refer to the chain shown, from its start. In names and notes the source's numbering stands. One block for each molecule: values may come before it.

Columns and labels:
[1] = biological target: Deg8 (sample of the analytical SEC) (Arabidopsis thaliana) (UniProt Q9LU10); assay: SEC; analytical SEC of Deg8 at pH 6.0; Superdex 200 10/300 GL, 10 µM protein, sodium phosphate, 150 mM NaCl
[2] = biological target: Deg8 (sample of the analytical SEC) (Arabidopsis thaliana) (UniProt Q9LU10); assay: SEC; analytical SEC of Deg8 at pH 8.0; Superdex 200 10/300 GL, 10 µM protein, sodium phosphate, 150 mM NaCl
[3] = biological target: the molecule itself; assay: crystal structure; Deg8 (S292A), space group C2, three molecules per asymmetric unit, 2.0 Å; hexamer in the crystal
[4] = biological target: the molecule itself; assay: crystal structure; Deg5 (S266A), space group C2, three molecules per asymmetric unit, 2.6 Å
[5] = biological target: the molecule itself; assay: SEC; analytical SEC, Superdex 200 10/300 GL, 10 µM protein, sodium phosphate pH 6.0 or 8.0, 150 mM NaCl

stoichiometry N [1]: 3
stoichiometry N [2]: 6
Molecule: Deg8 (sample of the analytical SEC) (from UniProt Q9LU10 91-448) (enzyme)

B1: Arabidopsis thaliana Deg8 (S292A) (enzyme, UniProt Q9LU10 91-448, looked up)
chain: LGDPSVATVEDVSPTVFPAGPLFPTEGRIVQLFEKNTYSVVNIFDVTLRPQLKMTGVVEIPEGNGSGVVWDGQGYIVTNYHVIGNALSRNPSPGDVVGRVNILASDGVQKNFEGKLVGADRAKDLAVLKVDAPETLLKPIKVGQSNSLKVGQQCLAIGNPFGFDHTLTVGVISGLNRDIFSQTGVTIGGGIQTDAAINPGNAGGPLLDSKGNLIGINTAIFTQTGTSAGVGFAIPSSTVLKIVPQLIQFSKVLRAGINIELAPDPVANQLNVRNGALVLQVPGKSLAEKAGLHPTSRGFAGNIVLGDIIVAVDDKPVKNKAELMKILDEYSVGDKVTLKIKRGNEDLELKISLEEKSS
notes: HtrA protease Deg8 of Arabidopsis thaliana, 358 residues Leu91-Ser448, catalytic Ser292 mutated to alanine; residues 104-448 defined in the density; source: expression and purification described previously (Shan et al., 2013)
stoichiometry N [3]: 6

B2: Arabidopsis thaliana Deg5 (S266A) (enzyme)
chain: LEQFKEKEEELEEEEERNVNLFQKTSPSVVYIEAIELPKTSSGDILTDEENGKIEGTGSGFVWDKLGHIVTNYHVIAKLATDQFGLQRCKVSLVDAKGTRFSKEGKIVGLDPDNDLAVLKIETEGRELNPVVLGTSNDLRVGQSCFAIGNPYGYENTLTIGVVSGLGREIPSPNGKSISEAIQTDADINSGNAGGPLLDSYGHTIGVNTATFTRKGSGMSSGVNFAIPIDTVVRTVPYLIVYGTAYRDR
notes: HtrA protease Deg5 of Arabidopsis thaliana, catalytic Ser266 mutated to alanine; PDB 4ic5 holds the crystallised chain; source: purified; expression and purification described previously (Fan et al., 2012)
stoichiometry N [4]: 3

B3: Deg5 (E87A/D260A/S266A) (enzyme, Arabidopsis thaliana)
chain: B2 chain with E14A, D187A
notes: HtrA protease Deg5 of Arabidopsis thaliana with E87A, D260A and S266A; parent is Deg5 (S266A), m1; also called Deg5 (S266A/E87A/D260A) triple mutant; mutant (E87A/D260A/S266A)
stoichiometry N [5]: 3
